Results as given in patent US20210069342A1 (LEGOCHEM BIOSCIENCES, published 2021).

Experiments:
[1] = target: T1, human ROR1 expressed on the cell surface (human, UniProt Q01973 30-937); test: flow cytometry on HCC1143 cells (breast cancer), C2E3 IgG, FITC anti-human Fc detection
T1 construct: whole, on cells; also called cell surface-expressed ROR1 antigen; ROR1 on JeKo-1, Mino, CHO-human ROR1, MC38-human ROR1 and other cancer cell lines
Protocol: (§1) FACS analysis (FACSCalibur, BD Biosciences) was used to analyze the binding of the anti-ROR1 antibody of the present invention to ROR1 in the above cell lines.
(§2) Specifically, the respective cell lines were dissociated and washed in PBS, then the numbers of cells were counted and adjusted to 2×10⁵ cells/200 PBS. Then, they were treated with 10 /mL of the antibody of clone name C2E3 of the ROR1 monoclonal antibodies prepared in Embodiment 3, and reacted for 1 hour at 4° C. After the reaction, the cells were washed in PBS, then FITC-marked constant region (Fc) specific antibody (Goat anti-human IgG FITC conjugate, Fc specific, Sigma, F9512, concentration 20 mg/ml) was suspended in 2 /1×10⁵ cells/200 PBS and reacted for 1 hour at 4° C. After reacting, the cells were washed with PBS and analyzed with the FACSCalibur equipment. The negative control was only treated with FITC-marked constant region (Fc) specific antibody. To compare the degree of ROR1 expression among the respective cancer cell lines, the quotient of dividing the shifted readings for the experimental group treated with the ROR1 monoclonal antibody (C2E3) of the present invention by the shifted readings for the control group (MFI Ratio: MFI of anti-ROR1/MFI or 2nd Ab) is indicated.

[2] = target: T1, human ROR1 expressed on the cell surface; test: flow cytometry on HT29 cells (colon cancer), C2E3 IgG, FITC anti-human Fc detection
Protocol: as §1, §2

[3] = target: T2, human ROR2 over-expressed on CHO cells (CHO-human ROR2) (human, UniProt Q01974 34-943); test: flow cytometry on CHO-S cells transiently over-expressing human ROR2, FITC anti-human Fc detection, MFI ratio to 2nd Ab alone
T2 construct: whole, on cells; Negative control; also called family protein human ROR2
T2 sequence (Q01974 34-943): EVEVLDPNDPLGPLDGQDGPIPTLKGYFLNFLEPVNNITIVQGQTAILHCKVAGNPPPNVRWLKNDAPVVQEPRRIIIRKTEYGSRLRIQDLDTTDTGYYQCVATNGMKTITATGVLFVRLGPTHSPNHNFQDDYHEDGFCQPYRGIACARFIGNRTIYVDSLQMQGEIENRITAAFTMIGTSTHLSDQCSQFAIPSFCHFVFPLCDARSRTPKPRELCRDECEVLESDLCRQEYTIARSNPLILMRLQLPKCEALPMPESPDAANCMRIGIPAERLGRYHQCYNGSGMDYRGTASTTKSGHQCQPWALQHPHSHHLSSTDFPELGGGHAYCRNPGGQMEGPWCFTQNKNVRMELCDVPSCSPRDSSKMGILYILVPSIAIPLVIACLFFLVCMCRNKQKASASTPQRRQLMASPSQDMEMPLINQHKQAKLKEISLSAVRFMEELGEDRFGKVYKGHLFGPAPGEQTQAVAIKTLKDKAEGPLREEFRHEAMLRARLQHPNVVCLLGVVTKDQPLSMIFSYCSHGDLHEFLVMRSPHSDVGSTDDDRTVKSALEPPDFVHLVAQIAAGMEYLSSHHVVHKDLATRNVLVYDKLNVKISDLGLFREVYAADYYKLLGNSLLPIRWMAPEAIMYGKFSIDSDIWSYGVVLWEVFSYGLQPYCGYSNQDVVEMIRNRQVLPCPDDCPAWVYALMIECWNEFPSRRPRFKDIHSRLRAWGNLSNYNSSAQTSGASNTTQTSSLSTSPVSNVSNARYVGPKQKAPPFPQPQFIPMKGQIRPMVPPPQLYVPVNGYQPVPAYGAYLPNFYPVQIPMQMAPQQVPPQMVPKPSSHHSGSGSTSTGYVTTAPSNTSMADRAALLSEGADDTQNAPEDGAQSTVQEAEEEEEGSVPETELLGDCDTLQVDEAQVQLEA
Text: (§3) For this experiment, using cell lines (FIG. 5 and FIG. 7, respectively) transiently (CHO-human ROR1, CHO-human ROR2, CHO-mouse ROR1) or stably (MC38-human ROR1) transfected with ROR1 gene to achieve artificial over-expression of ROR1 protein, an ROR1-expressing cell line (JeKo-1, Mino) (FIG. 6), a non ROR1-expressing cell line (MCF7) (FIG. 6) and a FACSCalibur (BD Biosciences) device was used to measure the degree to which anti-ROR1 antibody and ROR1 were bound, as follows. […] JeKo-1, Mino, CHO-human ROR1, CHO-mouse ROR1 and MC38-human ROR1 are all cell lines which express human ROR1 or mouse ROR1.
(§4) Specifically, after dissociating each cell line and washing in PBS, the number of cells was counted and adjusted to 2×10⁵ cells/200 PBS. Then the respective ROR1 monoclonal antibodies prepared in Embodiment 3 were diluted 5 times from 10 /mL or 10 /mL, then reacted for 1 hour at 4° C. After the reaction, the cells were washed in PBS, then FITC-marked constant region (Fc) specific antibody (Goat anti-human IgG FITC conjugate, Fc specific, Sigma, F9512, concentration 20 mg/ml) was suspended in 2 /1×10⁵ cells/200 PBS and reacted for 1 hour at 4° C. As for identification of the degree of expression of the transiently over-expressed human ROR1, human ROR2 and mouse ROR1, a commercially available FACS analysis antibody (anti-ROR1: R&D Systems, FAB 2000G, anti-ROR2: R&D, FAB20641P) was used. After reacting the cells were washed in PBS and analyzed using a FACSCalibur device. The negative control (2nd Ab) was only treated with FITC-marked constant region (Fc) specific antibody. The shifted readings for the respective experimental groups treated with ROR1 monoclonal antibody were compared against the shifted reading for the control group (MFI Ratio: MFI of anti-ROR1/MFI of 2nd Ab).

[4] = target: T1, human ROR1 expressed on the cell surface; test: flow cytometry on MC38-human ROR1 cells, IgG titrated, FITC anti-human Fc detection, MFI ratio to 2nd Ab alone; log axis whose first tick is printed 0
Text: as §3, §4

T1 sequence (Q01973 30-937): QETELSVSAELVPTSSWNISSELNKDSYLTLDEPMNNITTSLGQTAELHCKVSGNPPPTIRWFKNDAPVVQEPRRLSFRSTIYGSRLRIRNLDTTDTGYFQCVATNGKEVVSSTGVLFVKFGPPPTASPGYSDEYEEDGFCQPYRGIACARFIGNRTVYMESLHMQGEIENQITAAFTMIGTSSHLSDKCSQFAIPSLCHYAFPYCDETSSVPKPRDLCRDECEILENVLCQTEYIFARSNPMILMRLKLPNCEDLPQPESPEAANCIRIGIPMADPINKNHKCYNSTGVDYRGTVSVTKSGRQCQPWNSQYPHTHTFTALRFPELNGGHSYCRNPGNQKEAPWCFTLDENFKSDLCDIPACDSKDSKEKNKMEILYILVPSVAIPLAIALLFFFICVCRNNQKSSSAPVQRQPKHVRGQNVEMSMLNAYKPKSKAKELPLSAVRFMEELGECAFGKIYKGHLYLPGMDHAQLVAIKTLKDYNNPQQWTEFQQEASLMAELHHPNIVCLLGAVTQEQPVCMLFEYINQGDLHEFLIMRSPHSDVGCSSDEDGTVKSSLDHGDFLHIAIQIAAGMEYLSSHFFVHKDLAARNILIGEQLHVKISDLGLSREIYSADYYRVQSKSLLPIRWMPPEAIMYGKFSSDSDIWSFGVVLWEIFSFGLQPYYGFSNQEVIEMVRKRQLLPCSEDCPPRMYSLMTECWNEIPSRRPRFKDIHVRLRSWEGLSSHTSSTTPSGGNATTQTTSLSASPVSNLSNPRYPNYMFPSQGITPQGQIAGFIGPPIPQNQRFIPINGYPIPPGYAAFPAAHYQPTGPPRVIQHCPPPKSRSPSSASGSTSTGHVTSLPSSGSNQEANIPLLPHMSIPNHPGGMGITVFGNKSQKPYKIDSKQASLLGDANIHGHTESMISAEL

- Mean Fold Ratio (MFI of anti-ROR1 / MFI of 2nd Ab) [1]: 3.2
- Mean Fold Ratio (MFI of anti-ROR1 / MFI of 2nd Ab) [2]: 3.9
- binding result [3]: no binding
- EC50 (read off the curve) [4]: ~100 ng/mL
B1: anti-ROR1 IgG antibody C2E3 (antibody, V domains shown)
VH: EVQLLESGGGLVQPGGSLRLSCAASGFTFSNYAMSWVRQAPGKGLEWVSSISHNSGSTYYADSVKGRFTISRDNSKNTLYLQMNSLRAEDTAVYYCAKFISARKSLGRSYSNGMDVWGQGTLVTVSS
VL: QSVLTQPPSASGTPGQRVTISCTGSSSNIGSNDVTWYQQLPGTAPKLLIYADSKRPSGVPDRFSGSKSGTSASLAISGLRSEDEADYYCGTWDYSLSGYVFGGGTKLTVLG
notes: Full IgG form (human IgG1 constant region, lambda light chain), expressed in CHO-S cells
